Reference: the supplement of paper PMC6757056
± gives the standard deviation of the averaged measurements.

B1: library; a variant is named by its letters at N, in order (parent)
chain: GCUGUCACCGAGAAACUGUGAAGUAUAUCUUAAACCUGGGCACUUAAAAGAUAUAUGGAGUUAGUAGUGCAACCUGCUCGGUCUGAUGAGUCCNNNNNNGGACGAAACAGC

What was measured:
cyclic di-GMP [1] = variants of: B1; assay: normalized RNA/DNA level without ligand (relative to sTRSVctl = 100) (log10 (% of sTRSVctl)); HEK293T; ligand: cyclic di-GMP (c-di-GMP-II aptamer); higher = less ribozyme self-cleavage, higher mRNA level; conditions: reporter: mCherry (pCS4076), ligand present: no
Outline: (§1)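 RNA level was computed as RNA reads over DNA reads divided by a spiked-in non-cleaving sequence or by the top sequences, then scaled and log-transformed. Scaling was ×100 with log10, the top group was 25 sequences, and the threshold was ≥100 DNA reads. The reads came from HEK293T cells transfected at 4 µg per 6-well well with ribozyme switch library plasmids (mCherry, or eGFP in some ligand experiments). Total RNA was extracted with EDTA 72 h after transfection, with any ligand added 1 h before it.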

cyclic di-GMP [2] = variants of: B1; assay: normalized RNA/DNA level with ligand (relative to sTRSVctl = 100) (log10 (% of sTRSVctl)); HEK293T; ligand: cyclic di-GMP (c-di-GMP-II aptamer); ligand concentration (+) RNA-Seq: 1 mM; higher = less ribozyme self-cleavage, higher mRNA level; conditions: reporter: mCherry (pCS4076), ligand present: yes
Outline: as §1

Row | Variant | normalized RNA/DNA level without ligand (log10) (cyclic di-GMP [1]) | normalized RNA/DNA level with ligand (log10) (cyclic di-GMP [2])
1 | GAGUCU | 1.8 ± 0.07 | 1.85 ± 0.076
2 | GAGUCA | 1.82 ± 0.021 | 1.9 ± 0.085
3 | GAGUCC | 1.8 ± 0.043 | 1.88 ± 0.064
4 | GAGUCG | 1.83 ± 0.031 | 1.88 ± 0.092
5 | GAGGUC | 1.68 ± 0.042 | 1.82 ± 0.11
6 | GAGGUA | 1.698 ± 0.0042 | 1.77 ± 0.1
7 | GAGGUG | 1.74 ± 0.049 | 1.84 ± 0.087
8 | GAGGUU | 1.73 ± 0.072 | 1.85 ± 0.083
9 | CAGGGC | 1.73 ± 0.044 | 1.86 ± 0.16
10 | CAGGGU | 1.673 ± 0.014 | 1.82 ± 0.096
11 | CAGGGG | 1.63 ± 0.032 | 1.74 ± 0.075
12 | CAGGGA | 1.53 ± 0.13 | 1.67 ± 0.067
13 | CAGAAU | 1.38 ± 0.13 | 1.53 ± 0.12
14 | CAGAAG | 1.68 ± 0.039 | 1.86 ± 0.092
15 | CAGAAC | 1.54 ± 0.07 | 1.75 ± 0.089
16 | UAGCCA | 1.71 ± 0.04 | 1.86 ± 0.1
17 | UAGCCU | 1.73 ± 0.03 | 1.86 ± 0.043
18 | UAGCCG | 1.79 ± 0.063 | 1.93 ± 0.12
19 | UACUCU | 1.73 ± 0.053 | 1.84 ± 0.07
20 | UACUCC | 1.76 ± 0.035 | 1.9 ± 0.14
21 | UACUCG | 1.77 ± 0.06 | 1.88 ± 0.17
22 | CAGAUC | 1.61 ± 0.03 | 1.71 ± 0.18
23 | CAGAUU | 1.48 ± 0.11 | 1.65 ± 0.1

Row | Variant | normalized RNA/DNA level without ligand (log10) (cyclic di-GMP [1]) | normalized RNA/DNA level with ligand (log10) (cyclic di-GMP [2])
24 | CAGAUG | 1.63 ± 0.0074 | 1.75 ± 0.13
25 | CAGCUC | 1.7753 ± 0.00068 | 1.87 ± 0.099
26 | GAGGAA | 1.6 ± 0.055 | 1.72 ± 0.092
27 | GAGGAU | 1.66 ± 0.022 | 1.77 ± 0.13
28 | GAGGAG | 1.752 ± 0.014 | 1.82 ± 0.081
29 | GAGGAC | 1.67 ± 0.053 | 1.79 ± 0.11
30 | UAGCGC | 1.76 ± 0.019 | 1.88 ± 0.036
31 | UAGCGG | 1.8203 ± 0.00054 | 1.95 ± 0.067
32 | UAGCGU | 1.59 ± 0.056 | 1.72 ± 0.1
33 | UAGCGA | 1.61 ± 0.053 | 1.76 ± 0.095
34 | GAGAGU | 1.65 ± 0.0094 | 1.8 ± 0.1
35 | GAGAGG | 1.746 ± 0.016 | 1.82 ± 0.11
36 | GAGAGC | 1.71 ± 0.02 | 1.85 ± 0.12
37 | CAGCCG | 1.847 ± 0.0028 | 1.9 ± 0.074
38 | CAGCCU | 1.59 ± 0.055 | 1.79 ± 0.12
39 | UAGUCA | 1.768 ± 0.017 | 1.91 ± 0.076
40 | UAGUCU | 1.707 ± 0.015 | 1.84 ± 0.053
41 | UAGUCG | 1.8 ± 0.021 | 1.91 ± 0.14
42 | GAUAAC | 1.675 ± 0.0073 | 1.85 ± 0.1
43 | GAUAAG | 1.54 ± 0.036 | 1.72 ± 0.1
44 | GAGUUC | 1.81 ± 0.069 | 1.9 ± 0.06
45 | GAGUUU | 1.79 ± 0.031 | 1.87 ± 0.11
46 | UAGAGA | 1.51 ± 0.042 | 1.72 ± 0.089

Row | Variant | normalized RNA/DNA level without ligand (log10) (cyclic di-GMP [1]) | normalized RNA/DNA level with ligand (log10) (cyclic di-GMP [2])
47 | UAGAGU | 1.56 ± 0.066 | 1.73 ± 0.067
48 | UAGAGC | 1.712 ± 0.005 | 1.85 ± 0.047
49 | UAGAGG | 1.67 ± 0.087 | 1.82 ± 0.1
50 | GAUACC | 1.758 ± 0.0066 | 1.89 ± 0.066
51 | GAGGGC | 1.66 ± 0.057 | 1.82 ± 0.077
52 | GAGGGA | 1.65 ± 0.027 | 1.74 ± 0.083
53 | GAGGGG | 1.77 ± 0.056 | 1.86 ± 0.1
54 | GAGGGU | 1.71 ± 0.024 | 1.75 ± 0.14
55 | AAGGCA | 1.63 ± 0.05 | 1.71 ± 0.096
56 | AAGGCU | 1.71 ± 0.088 | 1.83 ± 0.22
57 | AAGGCC | 1.759 ± 0.0039 | 1.83 ± 0.083
58 | AAGGCG | 1.728 ± 0.012 | 1.83 ± 0.091
59 | AAGAGU | 1.5 ± 0.035 | 1.71 ± 0.12
60 | AAGAGC | 1.59 ± 0.05 | 1.71 ± 0.1
61 | UAGCUU | 1.68 ± 0.055 | 1.81 ± 0.073
62 | UAGCUA | 1.71 ± 0.038 | 1.82 ± 0.12
63 | UAGCUG | 1.74 ± 0.038 | 1.86 ± 0.084
64 | UAGCUC | 1.75 ± 0.022 | 1.89 ± 0.1
65 | CAGAGA | 1.41 ± 0.064 | 1.64 ± 0.13
66 | CAGAGU | 1.652 ± 0.0071 | 1.86 ± 0.11
67 | CAGAGG | 1.64 ± 0.069 | 1.8 ± 0.046
68 | CAGAGC | 1.67 ± 0.036 | 1.83 ± 0.09
69 | GAGCUC | 1.83 ± 0.052 | 1.91 ± 0.15

Row | Variant | normalized RNA/DNA level without ligand (log10) (cyclic di-GMP [1]) | normalized RNA/DNA level with ligand (log10) (cyclic di-GMP [2])
70 | GAGCUA | 1.79 ± 0.038 | 1.88 ± 0.11
71 | GAGCUU | 1.8 ± 0.045 | 1.9 ± 0.14
72 | UAGGUA | 1.55 ± 0.018 | 1.72 ± 0.05
73 | UAGGUG | 1.58 ± 0.068 | 1.77 ± 0.093
74 | UAGGUU | 1.67 ± 0.051 | 1.82 ± 0.11
75 | UAGGUC | 1.64 ± 0.032 | 1.81 ± 0.12
76 | CACUGA | 1.65 ± 0.039 | 1.77 ± 0.1
77 | CACUGG | 1.7 ± 0.035 | 1.81 ± 0.13
78 | CACUGC | 1.76 ± 0.024 | 1.87 ± 0.096
79 | GAGCCC | 1.81 ± 0.1 | 1.92 ± 0.16
80 | GAGCCG | 1.823 ± 0.0091 | 1.9 ± 0.11
81 | GAGCCA | 1.79 ± 0.051 | 1.87 ± 0.1
82 | CAGACG | 1.681 ± 0.013 | 1.77 ± 0.088
83 | AAGCCG | 1.732 ± 0.0043 | 1.82 ± 0.069
84 | AAGUUU | 1.724 ± 0.0032 | 1.88 ± 0.076
85 | AAGUUC | 1.6603 ± 0.0013 | 1.84 ± 0.11
86 | AAGUUG | 1.56 ± 0.072 | 1.75 ± 0.11
87 | GACUGU | 1.654 ± 0.0065 | 1.8 ± 0.15
88 | GACUGA | 1.57 ± 0.041 | 1.72 ± 0.12
89 | GACUGC | 1.705 ± 0.012 | 1.88 ± 0.068
90 | GACUGG | 1.68 ± 0.074 | 1.78 ± 0.1
91 | AAUAAC | 1.634 ± 0.013 | 1.8 ± 0.092
92 | AAUAAG | 1.52 ± 0.064 | 1.7 ± 0.096

Row | Variant | normalized RNA/DNA level without ligand (log10) (cyclic di-GMP [1]) | normalized RNA/DNA level with ligand (log10) (cyclic di-GMP [2])
93 | AAUAAU | 1.63 ± 0.051 | 1.8 ± 0.077
94 | UAGAAC | 1.641 ± 0.014 | 1.82 ± 0.13
95 | UAGAAG | 1.61 ± 0.027 | 1.8 ± 0.11
96 | UAGGCA | 1.68 ± 0.072 | 1.84 ± 0.13
97 | UAGGCG | 1.768 ± 0.013 | 1.87 ± 0.12
98 | UAGGCC | 1.819 ± 0.0024 | 1.9 ± 0.095
99 | CAUAAG | 1.706 ± 0.013 | 1.82 ± 0.1
100 | CAUAAC | 1.62 ± 0.028 | 1.75 ± 0.1
101 | GAGAUA | 1.69 ± 0.015 | 1.76 ± 0.099
102 | GAGAUG | 1.748 ± 0.0058 | 1.83 ± 0.071
103 | GAGAUC | 1.711 ± 0.0023 | 1.81 ± 0.11
104 | GAGACG | 1.8 ± 0.045 | 1.83 ± 0.13
105 | GAGACA | 1.8 ± 0.033 | 1.85 ± 0.088
106 | AAGACU | 1.66 ± 0.019 | 1.84 ± 0.057
107 | UAGUUC | 1.71 ± 0.031 | 1.89 ± 0.057
108 | UAGUUA | 1.67 ± 0.025 | 1.83 ± 0.13
109 | CAGGCG | 1.75 ± 0.091 | 1.88 ± 0.13
110 | CAGGCA | 1.615 ± 0.0084 | 1.71 ± 0.13
111 | CAGGCU | 1.8 ± 0.012 | 1.9 ± 0.11
112 | AACUUA | 1.615 ± 0.0013 | 1.79 ± 0.17
113 | AACUUC | 1.714 ± 0.0074 | 1.82 ± 0.095
114 | AACUUU | 1.737 ± 0.004 | 1.85 ± 0.09
115 | AACUUG | 1.66 ± 0.051 | 1.85 ± 0.11
